Assay results reported in paper PMC2756588.

T1: Lsb1, P53281
T1 sequence (P53281 45-122, looked up): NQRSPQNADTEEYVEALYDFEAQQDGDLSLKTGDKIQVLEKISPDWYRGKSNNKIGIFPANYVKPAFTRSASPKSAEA

T2: Hse1, P38753
T2 sequence (P38753 208-285, looked up): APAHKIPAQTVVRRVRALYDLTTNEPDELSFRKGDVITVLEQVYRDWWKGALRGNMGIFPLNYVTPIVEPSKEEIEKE

T3: Sla1-3, P32790
T3 sequence (P32790 344-424, looked up): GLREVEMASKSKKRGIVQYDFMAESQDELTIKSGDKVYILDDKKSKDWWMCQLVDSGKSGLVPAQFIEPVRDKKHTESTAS

T4: Lsb4, P32793
T4 sequence (P32793 402-468, looked up): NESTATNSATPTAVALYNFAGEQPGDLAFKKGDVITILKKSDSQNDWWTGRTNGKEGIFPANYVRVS

T5: Abp1, P15891
T5 sequence (P15891 535-592, looked up): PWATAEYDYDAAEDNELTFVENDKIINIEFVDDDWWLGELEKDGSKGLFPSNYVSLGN

T6: Hof1, Q05080
T6 sequence (Q05080 590-669, looked up): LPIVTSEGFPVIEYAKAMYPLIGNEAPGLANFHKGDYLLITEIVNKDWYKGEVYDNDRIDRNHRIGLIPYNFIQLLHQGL

T7: Pin3, Q06449
T7 sequence (Q06449 53-122, looked up): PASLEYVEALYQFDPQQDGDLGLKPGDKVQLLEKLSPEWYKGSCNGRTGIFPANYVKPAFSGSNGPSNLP

T8: Cdc25, P04821
T8 sequence (P04821 50-136, looked up): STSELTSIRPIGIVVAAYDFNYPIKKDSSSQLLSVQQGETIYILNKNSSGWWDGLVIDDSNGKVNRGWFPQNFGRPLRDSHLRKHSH

T9: Sla1-2, P32790
T9 sequence (P32790 60-140, looked up): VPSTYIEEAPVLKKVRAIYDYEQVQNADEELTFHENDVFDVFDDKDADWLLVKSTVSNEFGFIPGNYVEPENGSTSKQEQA

T10: Lsb3, P43603
T10 sequence (P43603 385-451, looked up): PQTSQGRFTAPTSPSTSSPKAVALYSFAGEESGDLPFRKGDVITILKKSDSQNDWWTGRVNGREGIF

T11: Boi2, P39969
T11 sequence (P39969 32-116, looked up): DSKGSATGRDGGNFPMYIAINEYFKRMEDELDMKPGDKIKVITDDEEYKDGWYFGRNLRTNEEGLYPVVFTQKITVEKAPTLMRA

T12: Bbc1, P47068
T12 sequence (P47068 1-78, looked up): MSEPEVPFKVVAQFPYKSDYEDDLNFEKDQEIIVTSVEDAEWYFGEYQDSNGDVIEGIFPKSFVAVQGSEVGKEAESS

T13: Cyk3, Q07533
T13 sequence (Q07533 1-83, looked up): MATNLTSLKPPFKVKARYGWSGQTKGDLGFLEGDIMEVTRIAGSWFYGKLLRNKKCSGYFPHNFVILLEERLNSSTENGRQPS

T14: Bzz1-2, P38822
T14 sequence (P38822 568-633, looked up): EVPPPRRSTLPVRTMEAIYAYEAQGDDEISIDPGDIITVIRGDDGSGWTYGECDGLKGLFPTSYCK

T15: Fus1, P11710
T15 sequence (P11710 432-512, looked up): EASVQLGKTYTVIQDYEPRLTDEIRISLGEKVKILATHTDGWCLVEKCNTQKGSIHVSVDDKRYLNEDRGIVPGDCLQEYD

T16: Boi1, P38041
T16 sequence (P38041 1-86, looked up): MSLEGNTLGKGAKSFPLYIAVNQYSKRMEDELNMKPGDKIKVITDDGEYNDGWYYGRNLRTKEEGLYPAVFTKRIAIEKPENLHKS

T17: Nbp2, Q12163
T17 sequence (Q12163 103-180, looked up): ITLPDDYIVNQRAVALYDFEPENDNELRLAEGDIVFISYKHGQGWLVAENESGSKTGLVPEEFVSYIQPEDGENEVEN

T18: Bzz1-1, P38822
T18 sequence (P38822 478-572, looked up): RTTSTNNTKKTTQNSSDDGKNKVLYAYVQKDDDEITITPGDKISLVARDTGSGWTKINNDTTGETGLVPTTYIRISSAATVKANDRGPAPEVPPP

T19: Bud14, P27637
T19 sequence (P27637 247-328, looked up): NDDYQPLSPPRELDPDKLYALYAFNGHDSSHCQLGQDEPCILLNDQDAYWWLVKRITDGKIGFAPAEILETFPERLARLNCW

T20: Myo5, Q04439
T20 sequence (Q04439 1072-1160, looked up): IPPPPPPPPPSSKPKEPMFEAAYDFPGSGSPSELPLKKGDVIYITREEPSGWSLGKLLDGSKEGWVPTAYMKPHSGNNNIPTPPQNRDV

T21: Pex13, P80667
T21 sequence (P80667 295-386, looked up): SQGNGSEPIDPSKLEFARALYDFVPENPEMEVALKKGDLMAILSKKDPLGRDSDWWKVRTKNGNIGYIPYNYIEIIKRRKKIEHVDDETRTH

B1: unnamed (peptide)
chain: PLQSKIPMLPSRRTM
B2: unnamed (peptide)
chain: LKPPIGRPPKFPKSP
B3: unnamed (peptide)
chain: SSSSTPPTLPPRRIE

What follows are binders tested against T1, Lsb1, P53281 (assay: SPOT array). Details: median of control spots 388.

SPOT intensity | Binder
396 | B1
0 | B2
1360 | B3

Each binder was assayed against T2, Hse1, P38753 (assay: SPOT array). Details: median of control spots 1727.

SPOT intensity | Binder
3 | B1
1 | B2
9 | B3

These binders were tested against T3, Sla1-3, P32790 (assay: SPOT array). Details: median of control spots 5475.

SPOT intensity | Binder
0 | B1
0 | B2
1 | B3

The binders below were run against T4, Lsb4, P32793 (assay: SPOT array). Details: median of control spots 397.

SPOT intensity | Binder
960 | B1
0 | B2
907 | B3

What follows are binders tested against T5, Abp1, P15891 (assay: SPOT array). Details: median of control spots 935.

SPOT intensity | Binder
124 | B1
133 | B2
19 | B3

Each binder was assayed against T6, Hof1, Q05080 (assay: SPOT array). Details: median of control spots 4086.

SPOT intensity | Binder
186 | B1
0 | B2
5 | B3

The binders below were run against T7, Pin3, Q06449 (assay: SPOT array). Details: median of control spots 2171.

SPOT intensity | Binder
280 | B1
0 | B2
58 | B3

Each binder was assayed against T8, Cdc25, P04821 (assay: SPOT array). Details: median of control spots 969.

SPOT intensity | Binder
0 | B1
0 | B2
2 | B3

These binders were tested against GST (assay: SPOT array). Details: median of control spots 978.

SPOT intensity | Binder
0 | B1
0 | B2
0 | B3

These binders were tested against T9, Sla1-2, P32790 (assay: SPOT array). Details: median of control spots 712.

SPOT intensity | Binder
14 | B1
0 | B2
1 | B3

What follows are binders tested against T10, Lsb3, P43603 (assay: SPOT array). Details: median of control spots 406.

SPOT intensity | Binder
635 | B1
3 | B2
1090 | B3

These binders were tested against T11, Boi2, P39969 (assay: SPOT array). Details: median of control spots 1161.

SPOT intensity | Binder
0 | B1
0 | B2
0 | B3

What follows are binders tested against Bem1-1, P29366 (assay: SPOT array). Details: median of control spots 4282.
Sequence of Bem1-1, P29366 (P29366 55-141): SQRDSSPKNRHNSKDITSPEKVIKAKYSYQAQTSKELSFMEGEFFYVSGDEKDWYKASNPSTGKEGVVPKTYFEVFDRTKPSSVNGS

SPOT intensity | Binder
1 | B1
0 | B2
0 | B3

These binders were tested against T12, Bbc1, P47068 (assay: SPOT array). Details: median of control spots 796.

SPOT intensity | Binder
29 | B1
18 | B2
11 | B3

What follows are binders tested against T13, Cyk3, Q07533 (assay: SPOT array). Details: median of control spots 1451.

SPOT intensity | Binder
2 | B1
0 | B2
0 | B3

These binders were tested against T14, Bzz1-2, P38822 (assay: SPOT array). Details: median of control spots 4538.

SPOT intensity | Binder
0 | B1
0 | B2
0 | B3

These binders were tested against Sho1, P40073 (assay: SPOT array). Details: median of control spots 1148.
Sequence of Sho1, P40073 (P40073 287-367): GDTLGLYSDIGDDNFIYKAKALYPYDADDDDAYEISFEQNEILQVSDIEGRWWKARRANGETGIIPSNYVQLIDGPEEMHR

SPOT intensity | Binder
21 | B1
24 | B2
0 | B3

Each binder was assayed against Bem1-2, P29366 (assay: SPOT array). Details: median of control spots 4347.
Sequence of Bem1-2, P29366 (P29366 139-227): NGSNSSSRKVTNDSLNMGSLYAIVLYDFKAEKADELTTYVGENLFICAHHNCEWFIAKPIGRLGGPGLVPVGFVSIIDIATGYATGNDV

SPOT intensity | Binder
0 | B1
0 | B2
0 | B3

Each binder was assayed against T15, Fus1, P11710 (assay: SPOT array). Details: median of control spots 1200.

SPOT intensity | Binder
0 | B1
0 | B2
0 | B3

These binders were tested against T16, Boi1, P38041 (assay: SPOT array). Details: median of control spots 1162.

SPOT intensity | Binder
0 | B1
3 | B2
0 | B3

These binders were tested against Myo3, P36006 (assay: SPOT array). Details: median of control spots 468.

SPOT intensity | Binder
102 | B1
397 | B2
99 | B3

What follows are binders tested against T17, Nbp2, Q12163 (assay: SPOT array). Details: median of control spots 357.

SPOT intensity | Binder
12 | B1
0 | B2
0 | B3

The binders below were run against T18, Bzz1-1, P38822 (assay: SPOT array). Details: median of control spots 4446.

SPOT intensity | Binder
0 | B1
0 | B2
0 | B3

These binders were tested against T19, Bud14, P27637 (assay: SPOT array). Details: median of control spots 956.

SPOT intensity | Binder
0 | B1
0 | B2
0 | B3

Each binder was assayed against T20, Myo5, Q04439 (assay: SPOT array). Details: median of control spots 471.

SPOT intensity | Binder
35 | B1
117 | B2
11 | B3

Each binder was assayed against Rvs167, P39743 (assay: SPOT array). Details: median of control spots 2707.
Sequence of Rvs167, P39743 (P39743 419-482): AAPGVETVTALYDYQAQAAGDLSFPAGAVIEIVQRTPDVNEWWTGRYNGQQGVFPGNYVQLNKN

SPOT intensity | Binder
1570 | B1
0 | B2
5650 | B3

What follows are binders tested against T21, Pex13, P80667 (assay: SPOT array). Details: median of control spots 1341.

SPOT intensity | Binder
329 | B1
4 | B2
365 | B3
